Data taken from patent publication US20230103885A1 (CRISPR THERAPEUTICS, published 2023).

Columns and labels:
[1] = target: T1, Recombinant FMC63-scFv protein; assay: indirect ELISA, purified native antibody at 1,000 ng/ml (1:1,000)
T1 construct: also called His-tagged single-chain variable fragment of mouse anti-human CD19 antibody FMC63; coating antigen A
Procedure: (§1) In the first (native) method, hybridoma cells (29E4B5) were cultured in low IgG culture medium in a roller bottle for 10 days. The supernatants were collected and protein A purified to obtain purified antibodies. The purified antibodies were analyzed for the ability to bind the FMC63-scFv protein and anti-CD19 CAR T cells using ELISA (Table 8).
(§2) A: Recombinant FMC63-scFv protein B: […] (FMC63-scFv linker peptide)(SEQ ID NO: 6) C: His-tagged protein D: Total human IgG The titer was the highest dilution where the Signal/Blank (S/B) ratio was ≥2.1. OD₄₅₀ for Blank was the average of two technical replicates. The starting concentration was 1 mg/ml, and the corresponding dilution ratio was calculated based on the actual concentration.

Total human IgG [2] = target: T2, Total human IgG (human); assay: as above
T2 construct: also called coating antigen D
Procedure: as §1, §2

[3] = target: T3, FMC63-scFv linker peptide; assay: as above
T3 construct: also called coating antigen B
T3 peptide: TGSTSGSGKPGSGEGSTKG
Procedure: as §1, §2

[4] = target: T4, irrelevant His-tagged protein; assay: as above
T4 construct: also called coating antigen C
Procedure: as §1, §2

[5] = target: T1, Recombinant FMC63-scFv protein; assay: indirect ELISA, purified native antibody at 500 ng/ml (1:2,000)
Procedure: as §1, §2

Total human IgG [6] = target: T2, Total human IgG; assay: as above
Procedure: as §1, §2

[7] = target: T3, FMC63-scFv linker peptide; assay: as above
Procedure: as §1, §2

[8] = target: T4, irrelevant His-tagged protein; assay: as above
Procedure: as §1, §2

[9] = target: T5, anti-CD19 CAR comprising the anti-CD19 scFv of SEQ ID NO:1; assay: flow cytometry on anti-CD19 CAR T cells, dilution 1:800
T5 construct: also called anti-CD19 chimeric antigen receptor; anti-CD19 CAR T cells
Text: (§3) The 29E4B5 antibodies produced using the first or the second method were compared with a reference anti-FMC63-scFv antibody (rec_mab3) for the ability to bind to the anti-CD19 CAR T cells using flow cytometry. Both methods produced 29E4B5 antibodies with higher affinity to the anti-CD19 cells than rec_mab3, showing higher CAR positive percentage even at 1:6,400 dilutions (Table 9).

[10] = target: T1, Recombinant FMC63-scFv protein; assay: indirect ELISA, subclone culture supernatant on coated antigen
Total human IgG [11] = target: T2, Total human IgG; assay: as above
[12] = target: T3, FMC63-scFv linker peptide; assay: as above
[13] = target: T4, irrelevant His-tagged protein; assay: as above
[14] = target: T5, anti-CD19 CAR comprising the anti-CD19 …; assay: flow cytometry on anti-CD19 CAR T cells, dilution 1:400
Text: as §3

[15] = target: T1, Recombinant FMC63-scFv protein; assay: indirect ELISA, purified native antibody at 250 ng/ml (1:4,000)
Procedure: as §1, §2

Total human IgG [16] = target: T2, Total human IgG; assay: as above
Procedure: as §1, §2

[17] = target: T3, FMC63-scFv linker peptide; assay: as above
Procedure: as §1, §2

[18] = target: T4, irrelevant His-tagged protein; assay: as above
Procedure: as §1, §2

[19] = target: T5, anti-CD19 CAR comprising the anti-CD19 …; assay: flow cytometry on anti-CD19 CAR T cells, dilution 1:3200
Text: as §3

[20] = target: T1, Recombinant FMC63-scFv protein; assay: indirect ELISA, purified native antibody; highest dilution with Signal/Blank >=2.1
Procedure: as §1, §2

Total human IgG [21] = target: T2, Total human IgG; assay: as above
Procedure: as §1, §2

[22] = target: T3, FMC63-scFv linker peptide; assay: as above
Procedure: as §1, §2

[23] = target: T4, irrelevant His-tagged protein; assay: as above
Procedure: as §1, §2

[24] = target: T1, Recombinant FMC63-scFv protein; assay: indirect ELISA, purified native antibody at 3.90 ng/ml (1:256,000)
Procedure: as §1, §2

Total human IgG [25] = target: T2, Total human IgG; assay: as above
Procedure: as §1, §2

[26] = target: T3, FMC63-scFv linker peptide; assay: as above
Procedure: as §1, §2

[27] = target: T4, irrelevant His-tagged protein; assay: as above
Procedure: as §1, §2

[28] = target: T5, anti-CD19 CAR comprising the anti-CD19 …; assay: flow cytometry on anti-CD19 CAR T cells, dilution 1:100
Text: as §3

[29] = target: T1, Recombinant FMC63-scFv protein; assay: indirect ELISA, purified native antibody at 7.81 ng/ml (1:128,000)
Procedure: as §1, §2

Total human IgG [30] = target: T2, Total human IgG; assay: as above
Procedure: as §1, §2

[31] = target: T3, FMC63-scFv linker peptide; assay: as above
Procedure: as §1, §2

[32] = target: T4, irrelevant His-tagged protein; assay: as above
Procedure: as §1, §2

[33] = target: T5, anti-CD19 CAR comprising the anti-CD19 …; assay: flow cytometry on anti-CD19 CAR T cells, dilution 1:6400
Text: as §3

[34] = target: T1, Recombinant FMC63-scFv protein; assay: indirect ELISA, purified native antibody at 125 ng/ml (1:8,000)
Procedure: as §1, §2

Total human IgG [35] = target: T2, Total human IgG; assay: as above
Procedure: as §1, §2

[36] = target: T3, FMC63-scFv linker peptide; assay: as above
Procedure: as §1, §2

[37] = target: T4, irrelevant His-tagged protein; assay: as above
Procedure: as §1, §2

[38] = target: T5, anti-CD19 CAR comprising the anti-CD19 …; assay: flow cytometry on anti-CD19 CAR T cells, dilution 1:50
Text: as §3

[39] = target: T5, anti-CD19 CAR comprising the anti-CD19 …; assay: flow cytometry on anti-CD19 CAR T cells, dilution 1:200
Text: as §3

[40] = target: T1, Recombinant FMC63-scFv protein; assay: indirect ELISA, purified native antibody at 31.25 ng/ml (1:32,000)
Procedure: as §1, §2

Total human IgG [41] = target: T2, Total human IgG; assay: as above
Procedure: as §1, §2

[42] = target: T3, FMC63-scFv linker peptide; assay: as above
Procedure: as §1, §2

[43] = target: T4, irrelevant His-tagged protein; assay: as above
Procedure: as §1, §2

[44] = target: T5, anti-CD19 CAR comprising the anti-CD19 …; assay: flow cytometry on anti-CD19 CAR T cells, dilution 1:1600
Text: as §3

[45] = target: T1, Recombinant FMC63-scFv protein; assay: indirect ELISA, purified native antibody at 62.50 ng/ml (1:16,000)
Procedure: as §1, §2

Total human IgG [46] = target: T2, Total human IgG; assay: as above
Procedure: as §1, §2

[47] = target: T3, FMC63-scFv linker peptide; assay: as above
Procedure: as §1, §2

[48] = target: T4, irrelevant His-tagged protein; assay: as above
Procedure: as §1, §2

[49] = target: T1, Recombinant FMC63-scFv protein; assay: indirect ELISA, purified native antibody at 15.62 ng/ml (1:64,000)
Procedure: as §1, §2

Total human IgG [50] = target: T2, Total human IgG; assay: as above
Procedure: as §1, §2

[51] = target: T3, FMC63-scFv linker peptide; assay: as above
Procedure: as §1, §2

[52] = target: T4, irrelevant His-tagged protein; assay: as above
Procedure: as §1, §2

[53] = target: T1, Recombinant FMC63-scFv protein; assay: indirect ELISA, purified native antibody at 1.95 ng/ml (1:512,000)
Procedure: as §1, §2

Total human IgG [54] = target: T2, Total human IgG; assay: as above
Procedure: as §1, §2

[55] = target: T3, FMC63-scFv linker peptide; assay: as above
Procedure: as §1, §2

[56] = target: T4, irrelevant His-tagged protein; assay: as above
Procedure: as §1, §2

T1 sequence (scFv, as listed by the source): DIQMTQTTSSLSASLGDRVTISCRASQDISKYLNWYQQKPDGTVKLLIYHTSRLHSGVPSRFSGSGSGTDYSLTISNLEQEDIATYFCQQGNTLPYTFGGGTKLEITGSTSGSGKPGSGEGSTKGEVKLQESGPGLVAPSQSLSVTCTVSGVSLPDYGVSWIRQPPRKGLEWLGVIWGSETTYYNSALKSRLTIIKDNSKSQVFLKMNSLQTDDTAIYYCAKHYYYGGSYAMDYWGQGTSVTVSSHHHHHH

B1: mouse anti-FMC63-scFv monoclonal antibody 29E4B5 (antibody, mouse IgG1, kappa, V domains shown)
VH: EVKLLQSGGGLVQPGGSLKLSCAASGIDFSRYWMSWVRRAPGKGLEWIGEINLDSSTKNYAPSLKDKFIISRDNAKNTLYLQMSKVRSEDTALYYCARNYVGMDYWGQGTSVTVSS
VL: DIVLTQSPASLAVSLGQRATISCRASKSVSSSDYTYMHWYQQKPGQPPKLLIYLASNLESGVPARFSGSGSGTDFTLNIHPVEEEDAATYYCQHSRELPPTFGGGTKLEIKR
notes: Hybridoma-derived antibody (culture supernatant, microscale purified, or protein A purified native lot), isotype IgG1, kappa; These are left out by the residue ranges; also called 29E4B5-1; 29E4B5-1 (Native)
Binder B1 has an OD450 [1] of 1.88 OD450, an OD450 (Total human IgG [2]) of 0.073 OD450 and an OD450 [3] of 0.064 OD450. For the same binder, the OD450 [4] was 0.059 OD450, the OD450 [5] was 1.89 OD450 and the OD450 (Total human IgG [6]) was 0.08 OD450. The OD450 [7] was 0.059 OD450, the OD450 [8] was 0.059 OD450 and the “% CAR+” value [9] was 67.6%. The OD450 nm [10] was 1.5 OD450, the OD450 nm (Total human IgG [11]) was 0.178 OD450 and the OD450 nm [12] was 0.087 OD450. For the same binder, the OD450 nm [13] was 0.201 OD450, the “% CAR+” value [14] was 67.6% and the OD450 [15] was 1.85 OD450. For the same binder, the OD450 (Total human IgG [16]) was 0.079 OD450, the OD450 [17] was 0.062 OD450 and the OD450 [18] was 0.054 OD450. The “% CAR+” value [19] was 62.9%, the Titer [20] was 512000 dilution (1:x) and the Titer (Total human IgG [21]) was < 1000 dilution (1:x). For the same binder, the Titer [22] was < 1000 dilution (1:x), the Titer [23] was < 1000 dilution (1:x) and the OD450 [24] was 0.407 OD450. It also gave an OD450 (Total human IgG [25]) of 0.073 OD450, an OD450 [26] of 0.068 OD450 and an OD450 [27] of 0.084 OD450. For the same binder, the “% CAR+” value [28] was 69.2%, the OD450 [29] was 0.676 OD450 and the OD450 (Total human IgG [30]) was 0.064 OD450. The OD450 [31] was 0.076 OD450, the OD450 [32] was 0.06 OD450 and the “% CAR+” value [33] was 60.5%. It also gave an OD450 [34] of 1.79 OD450, an OD450 (Total human IgG [35]) of 0.069 OD450 and an OD450 [36] of 0.059 OD450. For the same binder, the OD450 [37] was 0.057 OD450, the “% CAR+” value [38] was 70.1% and the “% CAR+” value [39] was 67.9%. For the same binder, the OD450 [40] was 1.32 OD450, the OD450 (Total human IgG [41]) was 0.076 OD450 and the OD450 [42] was 0.061 OD450. The OD450 [43] was 0.059 OD450, the “% CAR+” value [44] was 67.9% and the OD450 [45] was 1.71 OD450. The OD450 (Total human IgG [46]) was 0.071 OD450, the OD450 [47] was 0.075 OD450 and the OD450 [48] was 0.051 OD450. The OD450 [49] was 0.983 OD450, the OD450 (Total human IgG [50]) was 0.067 OD450 and the OD450 [51] was 0.067 OD450. For the same binder, the OD450 [52] was 0.088 OD450, the OD450 [53] was 0.245 OD450 and the OD450 (Total human IgG [54]) was 0.076 OD450. For the same binder, the OD450 [55] was 0.077 OD450 and the OD450 [56] was 0.085 OD450.

B2: 29E4B5-1 (Recombinant) (antibody, V domains shown)
VH: EVKLLQSGGGLVQPGGSLKLSCAASGIDFSRYWMSWVRRAPGKGLEWIGEINLDSSTKNYAPSLKDKFIISRDNAKNTLYLQMSKVRSEDTALYYCARNYVGMDYWGQGTSVTVSS
VL: DIVLTQSPASLAVSLGQRATISCRASKSVSSSDYTYMHWYQQKPGQPPKLLIYLASNLESGVPARFSGSGSGTDFTLNIHPVEEEDAATYYCQHSRELPPTFGGGTKLEIK
notes: also called recombinant 29E4B5 antibody
With B2 the “% CAR+” value [9] was 68%, the “% CAR+” value [14] was 69.1% and the “% CAR+” value [19] was 62.5%. For the same binder, the “% CAR+” value [28] was 69.3%, the “% CAR+” value [33] was 58% and the “% CAR+” value [38] was 69.6%. For the same binder, the “% CAR+” value [39] was 68.8% and the “% CAR+” value [44] was 65.9%.

B3: reference anti-FMC63-scFv antibody (rec_mab3) (antibody, V domains shown)
VH: EVKLVESGGGLVQPGGSLKLSCAASGFDFSRYWMSWVRQAPGKGLEWIGEINLDSSTINYTPSLKDKFIISRDNAKNTLYLQMSKVRSEDTALYYCARRYDAMDYWGQGTSVTVSS
VL: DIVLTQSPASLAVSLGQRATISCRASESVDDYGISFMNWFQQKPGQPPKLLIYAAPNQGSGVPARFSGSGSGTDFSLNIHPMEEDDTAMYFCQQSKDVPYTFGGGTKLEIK
notes: also called control anti-FMC63-scFv antibody
In the case of B3, the “% CAR+” value [9] is reported as 66.4%, the “% CAR+” value [14] is reported as 68.9% and the “% CAR+” value [19] is reported as 56.6%. The “% CAR+” value [28] was 69.4%, the “% CAR+” value [33] was 49.1% and the “% CAR+” value [38] was 69.8%. For the same binder, the “% CAR+” value [39] was 69.7% and the “% CAR+” value [44] was 62.2%.
